Data published in the supplement of paper PMC9112550, “Optimization of the antimicrobial peptide Bac7 by deep mutational scanning” (BMC Biology, 2022).

System: Escherichia coli TOP10
Test: shrunken log2 fold change of peptide-encoding DNA abundance (4.5 h post-induction vs induction); higher = less antimicrobial activity (less host growth inhibition)
Settings: time post-induction: 4.5 h; library: site-saturation at positions 5, 18, 19, 20
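Also: peptides expressed intracellularly from a pBAD plasmid library in pooled LB shake-flask culture, induced with 0.3% L-arabinose, DNA abundance read by NGS, three biological replicates, DESeq2 with apeglm shrinkage.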

Row | Sequence | shrunken log2 fold change
1 | RRIRVRPPRLPRPRPRPGALPRP | 0.0362
2 | RRIRHRPPRLPRPRPRPHHYPRP | -0.533
3 | RRIRQRPPRLPRPRPRPPYDPRP | -0.152
4 | RRIRLRPPRLPRPRPRPSPKPRP | 0.0205
5 | RRIRCRPPRLPRPRPRPFHCPRP | -0.451
6 | RRIRDRPPRLPRPRPRPQMVPRP | -0.0637
7 | RRIRERPPRLPRPRPRPSRIPRP | -0.234
8 | RRIRNRPPRLPRPRPRPRYEPRP | -0.27
9 | RRIRARPPRLPRPRPRPLFYPRP | -0.312
10 | RRIRVRPPRLPRPRPRPKWMPRP | -0.0468
11 | RRIRYRPPRLPRPRPRPTFRPRP | -0.0396
12 | RRIRARPPRLPRPRPRPPKNPRP | 0.562
13 | RRIRQRPPRLPRPRPRPYWKPRP | 0.000139
14 | RRIRVRPPRLPRPRPRPQLLPRP | -0.0606
15 | RRIRPRPPRLPRPRPRPFAHPRP | -0.124
16 | RRIRERPPRLPRPRPRPHTDPRP | -0.546
17 | RRIRYRPPRLPRPRPRPNTSPRP | -0.423
18 | RRIRWRPPRLPRPRPRPLKTPRP | 0.453
19 | RRIRCRPPRLPRPRPRPSLVPRP | -0.399
20 | RRIRIRPPRLPRPRPRPRNTPRP | -0.208
21 | RRIRDRPPRLPRPRPRPEDCPRP | -0.0123
22 | RRIRNRPPRLPRPRPRPVWRPRP | 0.636
23 | RRIRMRPPRLPRPRPRPTPRPRP | 1.46
24 | RRIRCRPPRLPRPRPRPECKPRP | -0.255
25 | RRIRMRPPRLPRPRPRPHQRPRP | 0.236

Row | Sequence | shrunken log2 fold change
26 | RRIRTRPPRLPRPRPRPLNQPRP | -0.417
27 | RRIRMRPPRLPRPRPRPMPMPRP | 0.194
28 | RRIRNRPPRLPRPRPRPVSEPRP | -0.253
29 | RRIRRRPPRLPRPRPRPTVHPRP | 0.231
30 | RRIRTRPPRLPRPRPRPTDRPRP | -0.212
31 | RRIRARPPRLPRPRPRPKNKPRP | 0.216
32 | RRIRMRPPRLPRPRPRPKVIPRP | -0.259
33 | RRIRDRPPRLPRPRPRPRLFPRP | 0.653
34 | RRIRGRPPRLPRPRPRPRTMPRP | 0.539
35 | RRIRCRPPRLPRPRPRPVREPRP | 0.386
36 | RRIRERPPRLPRPRPRPYYIPRP | -0.262
37 | RRIRVRPPRLPRPRPRPWVSPRP | -0.278
38 | RRIRCRPPRLPRPRPRPWYSPRP | -0.361
39 | RRIRLRPPRLPRPRPRPCDEPRP | -0.0824
40 | RRIRRRPPRLPRPRPRPHRCPRP | 0.0585
41 | RRIRERPPRLPRPRPRPRAVPRP | 0.264
42 | RRIRKRPPRLPRPRPRPMVEPRP | 0.0956
43 | RRIRIRPPRLPRPRPRPRIAPRP | -0.0281
44 | RRIRNRPPRLPRPRPRPQRWPRP | 0.176
45 | RRIRYRPPRLPRPRPRPGDCPRP | -0.189
46 | RRIRFRPPRLPRPRPRPVQWPRP | 0.184
47 | RRIRQRPPRLPRPRPRPDGHPRP | -0.0936
48 | RRIRVRPPRLPRPRPRPDPTPRP | 0.106
49 | RRIRCRPPRLPRPRPRPYYRPRP | -0.301
50 | RRIRHRPPRLPRPRPRPCSRPRP | -0.231

Row | Sequence | shrunken log2 fold change
51 | RRIRIRPPRLPRPRPRPPIRPRP | -0.0314
52 | RRIRFRPPRLPRPRPRPRRRPRP | 0.658
53 | RRIRFRPPRLPRPRPRPVDTPRP | -0.123
54 | RRIRHRPPRLPRPRPRPPWWPRP | 0.18
55 | RRIRWRPPRLPRPRPRPKTVPRP | 0.227
56 | RRIRDRPPRLPRPRPRPEMKPRP | 0.0494
57 | RRIRNRPPRLPRPRPRPPPAPRP | 1.09
58 | RRIRGRPPRLPRPRPRPDKKPRP | 0.878
59 | RRIRTRPPRLPRPRPRPHHMPRP | -0.321
60 | RRIRRRPPRLPRPRPRPGLEPRP | 0.472
61 | RRIRMRPPRLPRPRPRPKLKPRP | 2.65
62 | RRIRTRPPRLPRPRPRPLFTPRP | -0.352
63 | RRIRIRPPRLPRPRPRPQIMPRP | -1.16
64 | RRIRTRPPRLPRPRPRPGIRPRP | -0.0147
65 | RRIRSRPPRLPRPRPRPQWFPRP | -0.241
66 | RRIRQRPPRLPRPRPRPIRTPRP | -0.0597
67 | RRIRKRPPRLPRPRPRPKQWPRP | 0.216
68 | RRIRNRPPRLPRPRPRPSNMPRP | -0.429
69 | RRIRFRPPRLPRPRPRPQWPPRP | 0.192
70 | RRIRIRPPRLPRPRPRPEHSPRP | 0.0398
71 | RRIRTRPPRLPRPRPRPLMFPRP | -0.516
72 | RRIRPRPPRLPRPRPRPFKTPRP | -0.199
73 | RRIRDRPPRLPRPRPRPYREPRP | -0.748
74 | RRIRQRPPRLPRPRPRPQDSPRP | -0.297
75 | RRIRARPPRLPRPRPRPFGMPRP | 0.0196

Row | Sequence | shrunken log2 fold change
76 | RRIRCRPPRLPRPRPRPNEEPRP | -0.00783
77 | RRIRERPPRLPRPRPRPSGLPRP | -0.195
78 | RRIRTRPPRLPRPRPRPVWFPRP | 0.0412
79 | RRIRWRPPRLPRPRPRPWIVPRP | -0.337
80 | RRIRDRPPRLPRPRPRPFIWPRP | 0.293
81 | RRIRYRPPRLPRPRPRPNYPPRP | -0.79
82 | RRIRTRPPRLPRPRPRPWKKPRP | 0.0414
83 | RRIRVRPPRLPRPRPRPGDRPRP | 0.365
84 | RRIRNRPPRLPRPRPRPLNQPRP | -0.225
85 | RRIRMRPPRLPRPRPRPIWIPRP | 0.14
86 | RRIRHRPPRLPRPRPRPRRNPRP | -0.104
87 | RRIRCRPPRLPRPRPRPRRLPRP | 0.133
88 | RRIRFRPPRLPRPRPRPFVIPRP | -0.479
89 | RRIRERPPRLPRPRPRPLWKPRP | -0.424
90 | RRIRLRPPRLPRPRPRPHYEPRP | -0.762
91 | RRIRLRPPRLPRPRPRPYLPPRP | -0.18
92 | RRIRARPPRLPRPRPRPYIIPRP | -0.445
93 | RRIRERPPRLPRPRPRPHNLPRP | -0.47
94 | RRIRLRPPRLPRPRPRPADKPRP | 0.122
95 | RRIRQRPPRLPRPRPRPWYLPRP | -0.176
96 | RRIRNRPPRLPRPRPRPLYAPRP | -0.0693
97 | RRIRWRPPRLPRPRPRPKTGPRP | 0.491
98 | RRIRHRPPRLPRPRPRPRDQPRP | -0.0907
99 | RRIRYRPPRLPRPRPRPHYKPRP | -0.316
100 | RRIRVRPPRLPRPRPRPPNYPRP | -0.194

Row | Sequence | shrunken log2 fold change
101 | RRIRWRPPRLPRPRPRPMPNPRP | -0.0767
102 | RRIRLRPPRLPRPRPRPCSPPRP | -0.0527
103 | RRIRGRPPRLPRPRPRPYSLPRP | -0.158
104 | RRIRKRPPRLPRPRPRPLCCPRP | 0.104
105 | RRIRTRPPRLPRPRPRPIMRPRP | 0.25
106 | RRIRQRPPRLPRPRPRPFWLPRP | 0.0473
107 | RRIRNRPPRLPRPRPRPILQPRP | -0.387
108 | RRIRIRPPRLPRPRPRPVLHPRP | -0.447
109 | RRIRYRPPRLPRPRPRPYNQPRP | -0.922
110 | RRIRTRPPRLPRPRPRPYVDPRP | 0.0214
111 | RRIRFRPPRLPRPRPRPWCPPRP | -0.155
112 | RRIRCRPPRLPRPRPRPTNCPRP | -0.282
113 | RRIRKRPPRLPRPRPRPNESPRP | -0.0703
114 | RRIRLRPPRLPRPRPRPPCLPRP | 0.0124
115 | RRIRDRPPRLPRPRPRPAEEPRP | 0.168
116 | RRIRHRPPRLPRPRPRPFSFPRP | -0.363
117 | RRIRVRPPRLPRPRPRPDYIPRP | -0.381
118 | RRIRDRPPRLPRPRPRPYANPRP | -0.209
119 | RRIRMRPPRLPRPRPRPKELPRP | 0.642
120 | RRIRVRPPRLPRPRPRPRTIPRP | -0.0961
121 | RRIRWRPPRLPRPRPRPLTMPRP | 0.0382
122 | RRIRFRPPRLPRPRPRPCVAPRP | -0.201
123 | RRIRHRPPRLPRPRPRPFNPPRP | -0.17
124 | RRIRERPPRLPRPRPRPGQKPRP | 0.2
125 | RRIRPRPPRLPRPRPRPFRFPRP | 0.0991

Row | Sequence | shrunken log2 fold change
126 | RRIRNRPPRLPRPRPRPPWKPRP | -0.0649
127 | RRIRNRPPRLPRPRPRPGMWPRP | 0.397
128 | RRIRKRPPRLPRPRPRPTYLPRP | -0.201
129 | RRIRKRPPRLPRPRPRPYCHPRP | -0.469
130 | RRIRPRPPRLPRPRPRPFNRPRP | -0.436
131 | RRIRKRPPRLPRPRPRPDHPPRP | 0.0127
132 | RRIRDRPPRLPRPRPRPTNNPRP | 0.0553
133 | RRIRERPPRLPRPRPRPQRTPRP | -0.233
134 | RRIRERPPRLPRPRPRPMHGPRP | -0.00992
135 | RRIRPRPPRLPRPRPRPNAMPRP | -0.324
136 | RRIRWRPPRLPRPRPRPDVWPRP | 0.373
137 | RRIRNRPPRLPRPRPRPWFWPRP | 0.422
138 | RRIRCRPPRLPRPRPRPSAFPRP | 0.426
139 | RRIRMRPPRLPRPRPRPHYMPRP | -0.425
140 | RRIRERPPRLPRPRPRPKQAPRP | 0.156
141 | RRIRERPPRLPRPRPRPDFLPRP | 0.0309
142 | RRIRGRPPRLPRPRPRPDKLPRP | -0.0186
143 | RRIRLRPPRLPRPRPRPLMFPRP | -0.215
144 | RRIRRRPPRLPRPRPRPENLPRP | 0.0548
145 | RRIRERPPRLPRPRPRPQWEPRP | -0.0702
146 | RRIRLRPPRLPRPRPRPTYNPRP | -0.869
147 | RRIRERPPRLPRPRPRPHCNPRP | -1.07
148 | RRIRARPPRLPRPRPRPGNDPRP | -0.00116
149 | RRIRQRPPRLPRPRPRPMLYPRP | -0.282
150 | RRIRVRPPRLPRPRPRPNYSPRP | -0.438
